Source: the supplement of paper PMC9112550, “Optimization of the antimicrobial peptide Bac7 by deep mutational scanning” (BMC Biology, 2022)

System: Escherichia coli TOP10
Test: shrunken log2 fold change of peptide-encoding DNA abundance (4.5 h post-induction vs induction); higher = less antimicrobial activity (less host growth inhibition)
Settings: time post-induction: 4.5 h; library: site-saturation at positions 5, 18, 19, 20
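Further: peptides expressed intracellularly from a pBAD plasmid library in pooled LB shake-flask culture, induced with 0.3% L-arabinose, DNA abundance read by NGS, three biological replicates, DESeq2 with apeglm shrinkage.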

Sequence | shrunken log2 fold change
RRIRCRPPRLPRPRPRPCNGPRP | -0.00386
RRIRFRPPRLPRPRPRPDETPRP | 0.145
RRIRMRPPRLPRPRPRPGSGPRP | 1.34
RRIRTRPPRLPRPRPRPHNSPRP | -1.22
RRIRPRPPRLPRPRPRPDNQPRP | -0.357
RRIRVRPPRLPRPRPRPKPFPRP | 0.00969
RRIRWRPPRLPRPRPRPADLPRP | 0.331
RRIRRRPPRLPRPRPRPVGWPRP | 0.666
RRIRNRPPRLPRPRPRPRRGPRP | 0.78
RRIRHRPPRLPRPRPRPSPNPRP | -0.302
RRIRERPPRLPRPRPRPYFWPRP | -0.143
RRIRCRPPRLPRPRPRPSGDPRP | -0.195
RRIRSRPPRLPRPRPRPWQDPRP | -0.136
RRIRNRPPRLPRPRPRPHGKPRP | 0.0681
RRIRNRPPRLPRPRPRPSPFPRP | -0.287
RRIRARPPRLPRPRPRPYYNPRP | -0.97
RRIRHRPPRLPRPRPRPTFFPRP | 0.0852
RRIRGRPPRLPRPRPRPCTKPRP | 0.235
RRIRYRPPRLPRPRPRPKCNPRP | -0.533
RRIRGRPPRLPRPRPRPMMDPRP | 0.66
RRIRDRPPRLPRPRPRPAKRPRP | -0.161
RRIRPRPPRLPRPRPRPQFYPRP | -0.592
RRIRFRPPRLPRPRPRPLQGPRP | 0.0475
RRIRRRPPRLPRPRPRPEKWPRP | -0.00174
RRIRHRPPRLPRPRPRPWPGPRP | -0.327

Sequence | shrunken log2 fold change
RRIRCRPPRLPRPRPRPYCFPRP | -0.783
RRIRIRPPRLPRPRPRPQAPPRP | -0.331
RRIRFRPPRLPRPRPRPKEDPRP | 0.122
RRIRHRPPRLPRPRPRPVGDPRP | -0.206
RRIRPRPPRLPRPRPRPGCWPRP | 0.621
RRIRPRPPRLPRPRPRPSCAPRP | 0.0332
RRIRGRPPRLPRPRPRPFQHPRP | -0.0674
RRIRNRPPRLPRPRPRPWDYPRP | -0.0686
RRIRDRPPRLPRPRPRPADIPRP | -0.00114
RRIRMRPPRLPRPRPRPQFLPRP | -0.106
RRIRTRPPRLPRPRPRPPSGPRP | 0.467
RRIRHRPPRLPRPRPRPPLDPRP | 0.372
RRIRFRPPRLPRPRPRPSFEPRP | -0.532
RRIRDRPPRLPRPRPRPNREPRP | -0.00168
RRIRMRPPRLPRPRPRPALIPRP | 0.136
RRIRNRPPRLPRPRPRPLWVPRP | -0.0871
RRIRTRPPRLPRPRPRPYAAPRP | -0.445
RRIRSRPPRLPRPRPRPDKEPRP | 0.0247
RRIRLRPPRLPRPRPRPIGNPRP | 0.0592
RRIRVRPPRLPRPRPRPRELPRP | -0.0137
RRIRFRPPRLPRPRPRPEIVPRP | -0.0888
RRIRNRPPRLPRPRPRPGLHPRP | -0.0523
RRIRLRPPRLPRPRPRPPRNPRP | 0.356
RRIRQRPPRLPRPRPRPGLVPRP | 0.18
RRIRPRPPRLPRPRPRPSKFPRP | -0.494

Sequence | shrunken log2 fold change
RRIRYRPPRLPRPRPRPFFDPRP | 1.09
RRIRIRPPRLPRPRPRPWDEPRP | -0.156
RRIRFRPPRLPRPRPRPCCYPRP | -0.251
RRIRLRPPRLPRPRPRPNTHPRP | -0.473
RRIRVRPPRLPRPRPRPQMAPRP | -0.302
RRIRARPPRLPRPRPRPPEPPRP | 0.686
RRIRWRPPRLPRPRPRPAFTPRP | 0.0598
RRIRSRPPRLPRPRPRPKVYPRP | 0.226
RRIRHRPPRLPRPRPRPSINPRP | -0.605
RRIRPRPPRLPRPRPRPWYNPRP | -0.184
RRIRWRPPRLPRPRPRPTMYPRP | 0.00431
RRIRWRPPRLPRPRPRPGQNPRP | 0.134
RRIRHRPPRLPRPRPRPDEVPRP | -0.00134
RRIRRRPPRLPRPRPRPTHGPRP | 1.37
RRIRSRPPRLPRPRPRPKIMPRP | -0.246
RRIRVRPPRLPRPRPRPYYEPRP | -0.632
RRIRPRPPRLPRPRPRPMSTPRP | -0.229
RRIRYRPPRLPRPRPRPKIHPRP | -1.18
RRIRERPPRLPRPRPRPSLGPRP | -0.143
RRIRWRPPRLPRPRPRPYFNPRP | -1.06
RRIRSRPPRLPRPRPRPYIKPRP | -0.234
RRIRARPPRLPRPRPRPPYPPRP | 0.256
RRIRCRPPRLPRPRPRPTMVPRP | -0.33
RRIRRRPPRLPRPRPRPWYLPRP | -0.313
RRIRNRPPRLPRPRPRPIFYPRP | 0.00954

Sequence | shrunken log2 fold change
RRIRCRPPRLPRPRPRPMQYPRP | -0.000361
RRIRPRPPRLPRPRPRPKSHPRP | -0.246
RRIRCRPPRLPRPRPRPNCIPRP | -0.723
RRIRWRPPRLPRPRPRPDGNPRP | 0.276
RRIRDRPPRLPRPRPRPTANPRP | 0.877
RRIRERPPRLPRPRPRPNIEPRP | -0.136
RRIRLRPPRLPRPRPRPFHVPRP | -0.0193
RRIRTRPPRLPRPRPRPFRRPRP | -0.0209
RRIRGRPPRLPRPRPRPCVEPRP | 0.953
RRIRMRPPRLPRPRPRPMIHPRP | -0.106
RRIRGRPPRLPRPRPRPKFVPRP | 0.458
RRIRRRPPRLPRPRPRPSFCPRP | -0.00369
RRIRKRPPRLPRPRPRPELCPRP | -0.021
RRIRCRPPRLPRPRPRPIDFPRP | -0.458
RRIRPRPPRLPRPRPRPIFWPRP | 1.25
RRIRPRPPRLPRPRPRPYRCPRP | -0.173
RRIRHRPPRLPRPRPRPQVCPRP | -0.0115
RRIRQRPPRLPRPRPRPIWSPRP | -0.514
RRIRPRPPRLPRPRPRPMQGPRP | -0.146
RRIRPRPPRLPRPRPRPKKAPRP | 0.129
RRIRYRPPRLPRPRPRPVNGPRP | -0.338
RRIRKRPPRLPRPRPRPAYSPRP | -0.0338
RRIRLRPPRLPRPRPRPCNHPRP | -0.0991
RRIRHRPPRLPRPRPRPRNQPRP | 0.0527
RRIRSRPPRLPRPRPRPNASPRP | 0.233

Sequence | shrunken log2 fold change
RRIRFRPPRLPRPRPRPDNPPRP | -0.0747
RRIRVRPPRLPRPRPRPSHTPRP | -0.0229
RRIRCRPPRLPRPRPRPIQKPRP | -0.127
RRIRIRPPRLPRPRPRPHYIPRP | -0.155
RRIRLRPPRLPRPRPRPQERPRP | -0.839
RRIRTRPPRLPRPRPRPPRKPRP | 0.25
RRIRHRPPRLPRPRPRPPWTPRP | -0.131
RRIRDRPPRLPRPRPRPRFKPRP | -0.0405
RRIRLRPPRLPRPRPRPLSPPRP | 0.0444
RRIRPRPPRLPRPRPRPEKWPRP | 0.0413
RRIRVRPPRLPRPRPRPLKYPRP | -0.136
RRIRNRPPRLPRPRPRPPMVPRP | -0.0558
RRIRPRPPRLPRPRPRPPKFPRP | 0.0927
RRIRRRPPRLPRPRPRPTQMPRP | 0.694
RRIRTRPPRLPRPRPRPSNAPRP | -0.424
RRIRQRPPRLPRPRPRPSAIPRP | -0.399
RRIRNRPPRLPRPRPRPWKDPRP | -0.00136
RRIRHRPPRLPRPRPRPRRIPRP | 0.0543
RRIRMRPPRLPRPRPRPCTAPRP | 0.191
RRIRNRPPRLPRPRPRPTVPPRP | -0.233
RRIRYRPPRLPRPRPRPYQVPRP | -0.289
RRIRVRPPRLPRPRPRPRSHPRP | 0.0021
RRIRYRPPRLPRPRPRPVSSPRP | -0.272
RRIRQRPPRLPRPRPRPKMQPRP | -0.134
RRIRHRPPRLPRPRPRPFMFPRP | -0.66

Sequence | shrunken log2 fold change
RRIRRRPPRLPRPRPRPISAPRP | 0.122
RRIRFRPPRLPRPRPRPGFCPRP | -0.179
RRIRHRPPRLPRPRPRPRPGPRP | 0.324
RRIRARPPRLPRPRPRPRYTPRP | -0.0676
RRIRGRPPRLPRPRPRPNVLPRP | -0.0548
RRIRKRPPRLPRPRPRPMQDPRP | -0.0916
RRIRERPPRLPRPRPRPFIRPRP | -0.854
RRIRMRPPRLPRPRPRPQQCPRP | 0.143
RRIRERPPRLPRPRPRPARRPRP | 0.539
RRIRHRPPRLPRPRPRPAMAPRP | 0.126
RRIRIRPPRLPRPRPRPTLIPRP | -0.101
RRIRCRPPRLPRPRPRPWLCPRP | -0.182
RRIRMRPPRLPRPRPRPSGSPRP | 0.133
RRIRYRPPRLPRPRPRPFCLPRP | -1.22
RRIRFRPPRLPRPRPRPKDTPRP | 0.0365
RRIRQRPPRLPRPRPRPETRPRP | -0.0113
RRIRYRPPRLPRPRPRPIWLPRP | -0.175
RRIRMRPPRLPRPRPRPANIPRP | -0.0889
RRIRQRPPRLPRPRPRPQTIPRP | -0.16
RRIRWRPPRLPRPRPRPLGIPRP | -0.242
RRIRRRPPRLPRPRPRPICDPRP | 0.309
RRIRFRPPRLPRPRPRPKCPPRP | -0.128
RRIRTRPPRLPRPRPRPHMPPRP | -0.422
RRIRARPPRLPRPRPRPYEPPRP | 0.116
RRIRARPPRLPRPRPRPGIQPRP | -0.041
